# Test system: Escherichia coli TOP10
# Test: shrunken log2 fold change of peptide-encoding DNA abundance (4.5 h post-induction vs induction); higher = less antimicrobial activity (less host growth inhibition)
# Details: time post-induction: 4.5 h; library: site-saturation at positions 5, 18, 19, 20
# 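Further: peptides expressed intracellularly from a pBAD plasmid library in pooled LB shake-flask culture, induced with 0.3% L-arabinose, DNA abundance read by NGS, three biological replicates, DESeq2 with apeglm shrinkage.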
row,Sequence,shrunken log2 fold change
1,RRIRVRPPRLPRPRPRPCARPRP,-0.0405
2,RRIRDRPPRLPRPRPRPCSDPRP,0.0293
3,RRIRIRPPRLPRPRPRPCGYPRP,-0.01
4,RRIRQRPPRLPRPRPRPDQLPRP,-0.263
5,RRIRGRPPRLPRPRPRPMQKPRP,0.61
6,RRIRIRPPRLPRPRPRPEFGPRP,0.129
7,RRIRIRPPRLPRPRPRPTVDPRP,0.11
8,RRIRQRPPRLPRPRPRPNAYPRP,-0.279
9,RRIRCRPPRLPRPRPRPSLVPRP,-0.399
10,RRIRIRPPRLPRPRPRPRKGPRP,0.05
11,RRIRTRPPRLPRPRPRPMQDPRP,0.118
12,RRIRLRPPRLPRPRPRPVWKPRP,-0.0133
13,RRIRSRPPRLPRPRPRPNTPPRP,-0.616
14,RRIRCRPPRLPRPRPRPDCIPRP,-0.027
15,RRIRLRPPRLPRPRPRPTCFPRP,-0.156
16,RRIRVRPPRLPRPRPRPSGYPRP,-0.28
17,RRIRIRPPRLPRPRPRPNWSPRP,0.0776
18,RRIRLRPPRLPRPRPRPHLMPRP,-0.218
19,RRIRARPPRLPRPRPRPGSFPRP,0.495
20,RRIRWRPPRLPRPRPRPGKRPRP,0.37
21,RRIRHRPPRLPRPRPRPFKRPRP,0.0885
22,RRIRGRPPRLPRPRPRPDICPRP,0.2
23,RRIRSRPPRLPRPRPRPCESPRP,-0.0178
24,RRIRHRPPRLPRPRPRPQVPPRP,0.0019
25,RRIRSRPPRLPRPRPRPYATPRP,-0.192

row,Sequence,shrunken log2 fold change
1,RRIRDRPPRLPRPRPRPGNHPRP,0.0062
2,RRIRLRPPRLPRPRPRPPDNPRP,0.0299
3,RRIRCRPPRLPRPRPRPKLFPRP,0.132
4,RRIRVRPPRLPRPRPRPTDIPRP,-0.402
5,RRIRRRPPRLPRPRPRPGSCPRP,0.152
6,RRIRHRPPRLPRPRPRPGKMPRP,-0.423
7,RRIRKRPPRLPRPRPRPIRDPRP,-0.016
8,RRIRERPPRLPRPRPRPLCTPRP,-0.364
9,RRIRNRPPRLPRPRPRPQEYPRP,-0.578
10,RRIRSRPPRLPRPRPRPMCVPRP,-0.134
11,RRIRERPPRLPRPRPRPDYRPRP,-0.285
12,RRIRVRPPRLPRPRPRPQLLPRP,-0.0606
13,RRIRERPPRLPRPRPRPEPVPRP,-0.00161
14,RRIRQRPPRLPRPRPRPPVEPRP,0.265
15,RRIRGRPPRLPRPRPRPWMVPRP,0.213
16,RRIRARPPRLPRPRPRPWNQPRP,-0.247
17,RRIRPRPPRLPRPRPRPHWHPRP,-0.124
18,RRIRVRPPRLPRPRPRPFRVPRP,-0.266
19,RRIRGRPPRLPRPRPRPETLPRP,1.37
20,RRIRLRPPRLPRPRPRPKWAPRP,-0.0391
21,RRIRPRPPRLPRPRPRPIYGPRP,-0.0498
22,RRIRQRPPRLPRPRPRPVTAPRP,-0.362
23,RRIRGRPPRLPRPRPRPCDNPRP,0.0785
24,RRIRLRPPRLPRPRPRPNFQPRP,-0.0242
25,RRIRKRPPRLPRPRPRPSWGPRP,0.00315

row,Sequence,shrunken log2 fold change
1,RRIRTRPPRLPRPRPRPYEQPRP,-0.0291
2,RRIRERPPRLPRPRPRPELNPRP,-0.119
3,RRIRARPPRLPRPRPRPKWPPRP,0.751
4,RRIRHRPPRLPRPRPRPENYPRP,-0.327
5,RRIRFRPPRLPRPRPRPFKDPRP,-0.112
6,RRIRRRPPRLPRPRPRPCGDPRP,0.478
7,RRIRVRPPRLPRPRPRPAMCPRP,-0.178
8,RRIRMRPPRLPRPRPRPGIQPRP,-0.105
9,RRIRIRPPRLPRPRPRPEVWPRP,0.217
10,RRIRWRPPRLPRPRPRPTHVPRP,0.316
11,RRIRWRPPRLPRPRPRPGFTPRP,0.132
12,RRIRKRPPRLPRPRPRPNNHPRP,-0.469
13,RRIRQRPPRLPRPRPRPILAPRP,0.465
14,RRIRHRPPRLPRPRPRPHLIPRP,-0.097
15,RRIRVRPPRLPRPRPRPGKMPRP,-0.0672
16,RRIRMRPPRLPRPRPRPDRAPRP,0.861
17,RRIRHRPPRLPRPRPRPVEIPRP,-0.0173
18,RRIRQRPPRLPRPRPRPAHTPRP,0.379
19,RRIRLRPPRLPRPRPRPRMYPRP,-0.166
20,RRIRFRPPRLPRPRPRPDHDPRP,-0.217
21,RRIRNRPPRLPRPRPRPGELPRP,-0.0397
22,RRIRYRPPRLPRPRPRPHKHPRP,-0.91
23,RRIRKRPPRLPRPRPRPASRPRP,0.519
24,RRIRNRPPRLPRPRPRPYMWPRP,-0.328
25,RRIRGRPPRLPRPRPRPLNLPRP,-0.018

row,Sequence,shrunken log2 fold change
1,RRIRHRPPRLPRPRPRPHKVPRP,-0.299
2,RRIRDRPPRLPRPRPRPDFPPRP,0.0974
3,RRIRERPPRLPRPRPRPKYHPRP,-0.57
4,RRIRWRPPRLPRPRPRPCHSPRP,-0.286
5,RRIRKRPPRLPRPRPRPFPQPRP,0.11
6,RRIRCRPPRLPRPRPRPQKWPRP,-0.568
7,RRIRSRPPRLPRPRPRPFVLPRP,-0.215
8,RRIRWRPPRLPRPRPRPSWPPRP,0.0582
9,RRIRMRPPRLPRPRPRPYTVPRP,0.0221
10,RRIRIRPPRLPRPRPRPTFYPRP,-0.462
11,RRIRTRPPRLPRPRPRPTCSPRP,0.00373
12,RRIRTRPPRLPRPRPRPMLEPRP,0.018
13,RRIRVRPPRLPRPRPRPWQYPRP,-0.0599
14,RRIRGRPPRLPRPRPRPRSKPRP,0.781
15,RRIRNRPPRLPRPRPRPGRIPRP,-0.0181
16,RRIRCRPPRLPRPRPRPVCWPRP,0.401
17,RRIRYRPPRLPRPRPRPPGHPRP,-0.337
18,RRIRMRPPRLPRPRPRPPTSPRP,1.23
19,RRIRRRPPRLPRPRPRPFQLPRP,0.0918
20,RRIRSRPPRLPRPRPRPNIQPRP,-0.28
21,RRIRLRPPRLPRPRPRPEVVPRP,0.0493
22,RRIRLRPPRLPRPRPRPAAKPRP,0.602
23,RRIRIRPPRLPRPRPRPYMAPRP,-0.281
24,RRIRNRPPRLPRPRPRPWWMPRP,-0.0246
25,RRIRQRPPRLPRPRPRPWNYPRP,-0.201

row,Sequence,shrunken log2 fold change
1,RRIRHRPPRLPRPRPRPETRPRP,0.013
2,RRIRTRPPRLPRPRPRPPLLPRP,0.172
3,RRIRFRPPRLPRPRPRPAFLPRP,-0.17
4,RRIRYRPPRLPRPRPRPITFPRP,-0.864
5,RRIRIRPPRLPRPRPRPVNEPRP,-0.213
6,RRIRTRPPRLPRPRPRPGVWPRP,0.631
7,RRIRSRPPRLPRPRPRPGIMPRP,-0.334
8,RRIRVRPPRLPRPRPRPNHIPRP,-0.651
9,RRIRERPPRLPRPRPRPPLGPRP,0.0751
10,RRIRFRPPRLPRPRPRPVHYPRP,-0.195
11,RRIRERPPRLPRPRPRPGFRPRP,0.231
12,RRIRQRPPRLPRPRPRPVFLPRP,-0.218
13,RRIRNRPPRLPRPRPRPPKVPRP,0.28
14,RRIRKRPPRLPRPRPRPEQNPRP,0.949
15,RRIRCRPPRLPRPRPRPDNTPRP,0.881
16,RRIRKRPPRLPRPRPRPVRTPRP,0.583
17,RRIRCRPPRLPRPRPRPYFSPRP,-0.135
18,RRIRSRPPRLPRPRPRPPASPRP,0.694
19,RRIRIRPPRLPRPRPRPAICPRP,-0.15
20,RRIRMRPPRLPRPRPRPMYKPRP,-0.472
21,RRIRWRPPRLPRPRPRPVLMPRP,-0.0411
22,RRIRNRPPRLPRPRPRPNPAPRP,0.028
23,RRIRCRPPRLPRPRPRPNIYPRP,-0.588
24,RRIRDRPPRLPRPRPRPPAGPRP,0.418
25,RRIRDRPPRLPRPRPRPGWYPRP,0.178
